Experiment: label from the status in PepcDB records
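Further: failed if final PepcDB status was selected cloned or expressed and not failed if soluble or beyond.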

Sequence	protein production
MKSNRLIKRLDWYIIKKFLGTYVFAIALIISIAVVFDFNEKMDKLMEHEAPWDKIIFEYYMNFIPYFSNLFSPLFVFIAVIFFTSKLAENSEIIAMFSTGMSFKRMMRPYMISAAIIAAATFMMSSFIIPKGSVTRLNFEDKYIKPKKVNSVRNVQLEVDSGVIAYIDNYNDGMKTGNRFSLDKFVDKKLVSHLTARRITYDTTTVNKWTIHDYMVRELDGLKEKITKGDRIDSIINMDPSDFLIMKNQQEMLTSPELSEYIEKQKRRGFANIKEFEIEYHKRIAMSFASFILTIIGVSLSSRKTKGGMGLHLGIGLGLSFSYILFQTITSTFAINGNVPPAIAVWIPNILYAGIAFYLYQKAPK	failed
MKSSNIGGQAVMEGIMMRHKDKYAIAVRRPDKEIELKVEDYKCTFGKAAFLKWPIIRGVVSFVDGLVVGTKCLMYSAEIAGDEEDEKEAAKNATLTEEELSAKKAKEAKQFQ	not failed
MKSSYGSSSNDLHAFVNEIKGEIQLSNINLDPYSFVSPSAYDTAWLSMIEEDINVDDNELKPMFQGCLDWIMCNQNAREGFWMNSTSYTTVADGRDEDGEKDMCILTSTLACVVALQKWNIGCFHLHKGTRYIERNTEMIIGKYINEEGSYPRWFAIKFTGILELAQKLGLHFVFSSRCIEMIKGMFYQRQEIIQREKLVHDCNYKPLLAYLEVLPSKLYVTNQEDIIVKSLDSMDGSLFQSPSATASAFMLTRNTKCLAYLQNLVQKCPNGVPQKYPLNEDLIKLSMVNLIESTGLGEFFGIEIEHVLEQVYSRYEEKDFERMPMSYLADQLHKDSLAFRMLRMHGRDVSPRSFCWFLNDQETRNHLERNIDSFLLVILSVYRATDLMFPGEHDLQEAREYTRNLLEKRRSIKEKMVPIYLNKIMHELSTPWIARLKHLDHRMWIEDKNSNVLSMEKASFLRLHSSYSDKLTHLAARNFEFQQAKYCRELEELTMWVKKWGLSDIGFGREKTTYCYFATVTSLPYEYAIKFGKLAAKTAILITIADDFFDEKGSFNDLEGLTKAVLRWEGEELKSYGNIIFRALDDIVRETANTCRTHHKTDIIVHLRNIWGETFESWLREAEWSKKGHTSSMDEYIRNGMISIAAHTIALSISCLMEPCFPHNKLKPGNYDSITTLLMIIPRLLNDLQSYQKEQEQGKMNSVLLHMKNHPGLEIEDSIAHIEKIIDSKRKEFLEHVLVDGLSDLPKPCKEIHMSCCKVFEMFFNKKNRYDSNTEMLHDIKKALYDPINVYELSEMEPMPLMAHGDEYMILPLLLNSLPNILEFKRKDGYGAMKTSMCFGRSYRVNKRVMASQLDDQHKPLKIVASQRKPVPMMQSIFAPCFY	failed
MKSVNYRLLFSKSIFLGIFFLNIVFAQAQNEKKYIKEGDAAAASGDSKTALNQYLQAYKLNQTNASLNYKIGVQYLKSEYPHKCLSYFESAYKLDPKVDKDILFNLGVAYQENHRFDEAADYFTKYRATLDPSNPFLKKIDRRLYECANGKEFMEKPVDVKIQSVSSVVNSPYSDFAPVISADEKVMIFTSRRPGSTGGSFDENGQYYEDIYISKKIAGQWGAPQNIGSNINTEFHDASIALSADGSELFIYKDDNAGDIYYCKQRADGSWSKPLPIEGSVNSRTYRENAAAVSPDGNTLFFASNREGGYGKLDLYMVKMNDKGFWGKPINLGPTINTEVDDESPFMDFDGMTLYFSSRAHKGMGGLDIFKTYYDSTKGDWTEPINMGYPINSADDDINFVLSGDGGHGYYASAKDDGVGEKDIYMISMPPREDRTKLIEKMKAMHLDAPIADVVPAPTVAAVLLPITIKGVVKDAETGKPMQTVVQLTDENGKLIAEKNVGPDGLYSFTVKNEAATSYTLSTEKEEFGFINKTFSVPGEKTSSQEITQNLALKKLAVGNVYVLRNIYFDFDKATLKSASNKELNNLLQLLKQNPEMEIEISGHTDSKGSDEYNRVLSRKRAQAVVNWLVSKGISKNRLKFEGYGESRPLASNDDELEGRELNRRTEFKILKK	failed
MKSYQPKSLLNDLQYYITPPHDCSYLDNKSARMVFLDPIHRIDVVTLSELSRVGFRRSGDFVYRPECHLCRQCLSCRVPVHDFNMNSLQKKAWKRNQDLRMSIVPTHAATSVHYQLYERYINERHADGDMFPPSLDQFEKFLVHSCTESFFLELWKDDRLICVSTCDLMDDGLSAVYTFFDPDENRRSLGVFAILKQLEYVKSIDLDYLYLGYWVPHSQKMNYKSQYIPLELLLDGQWRRLNRALSQEEISQLGESLMTILPSEWNSMIIKLEHHHHHH	failed
MKSYRKELWFHTKRRREFINITPLLEECVRESGIKEGLLLCNAMHITASVFINDDEPGLHHDFEVWLEKLAPEKPYSQYKHNDTGEDNADAHLKRTIMGREVVIAITDRKMDLGPWEQVFYGEFDGMRPKRVLVKIIGE	not failed
MKTDVRWATFNIRYDNPQDSLNNWQYRKDRVCQFIKDHELDIVGMQEVLHNQFQDLRAGLPEYDGIGVGRDDGKTAGEYAPLFYRKDKYEVLDSNTFWLAENPDSVGMMGWDAVCVRIATWAKFKDKATGKIFMAVNTHFDHVGEEARRQSALLIIRKIKEIVGERPAVVTGDFNVTDASDAYETITTNEFVMKDAYKTAARVTGVDYTFHDFARIPAEDCEKIDFIFVTPQVLVKSCEIPAEVPEALLSDHNPQLADLELEHHHHHH	not failed
MKTEKEKREEEEEDLRPFRIHAYSKEELAMLYNPTYCISNAIYTLAAWIRHNKALKGELEKVGYNKYRRTFTPLEVKVLVKYLGEP	failed
MKTFIIGISGVTNSGKTTLAKNLQKHLPNCSVISQDDFFKPESEIETDKNGFLQYDVLEALNMEKMMSAISCWMESARHSVVSTDQESAEEIPILIIEGFLLFNYKPLDTIWNRSYFLTIPYEECKRRRSTRVYQPPDSPGYFDGHVWPMYLKYRQEMQDITWEVVYLDGTKSEEDLFLQVYEDLIQELAKQKCLQVTA	failed
MKTKPQAPHVDFYEKSELLHFLDCASKHENPQAFMFFRLLAFTGLRRGEALALQWSDINFETNELTVNKTQAVGKRWRTIIQTPKTNTSYRTIVLDPDTAQWLHKWKMTQARQCFELGFNANDPSQLVFTNQQNKLMSPSTVNYFNWSICKKYGLRHIKIHAFRHTFCTLAFEAHAGINEVSKTLGHADLKITEQIYLHVTKKQKNETASKLARYMSELLEHHHHHH	not failed
MKTLEKVNYKGFIWPLAVGIVLWLITPWRPGGLSVQAWEMFAIFVATIVGCITKPLPIGGTTLLGMVVTVLVGLAPVKDVVNSKGVVIQTGILSSFGNSAAWLIAMAFIMAHGISKTGLGNRVAYVMIEKFGKRSIGIGYAITGLELMMGALIPSNSARTGGVTWPVVESISKSYDSKPNDPSRKKIGAYLDFMAFHANILSTALFITGAAPNLVAQQMAAQKGYQMSWVSWFWAALVPVLVATVIIPLVIYKMYPPEVKETPNAKNWADDKLKEMGPISKPEKIMATVFCLAILLWVLSGFFKIPQLDSAFVAFLAVTLLLITGVLSMEDALHETGAWNILIWLSILIFMAGKLISYGFIAWFAKFIQSEVHGINWGLVLVVLILLMFYTHYFFASGTAHMTALYLPFLTVATAMGAPLGLSAMLLAFTGVINASTTHYANGPASILATTGYVKQSEWWKMNFILGLIYMVIFGIVGTIWMKIIGIW	failed
MKTLYDLPIVLRNLPEDLVLEKPLPEVSVTIRAYPEILNNLTKEQISLWIDATGKAVGEHTVKIYWQLPAGIEMVSIPDVTYTLKAKEDPLEHHHHHH	failed
MKTMNYSLIRILFALVIGLVLVLWPNTAASYIVITIGVAFLIPGVISLFSFFGRKRSEHEPAPRFPIEGIGSLLFGLWLIVMPEFFADVLMFLLGFILIMGGVQQIASLSMARRWTPVPGIFYLVPSLILIAGVIALFNPTGVRNTAFIIIGISSLVYSLSELINWFKFARRRPKTPVTPHDEDIEDAKIIE	failed
MKTMRKILEIDEERCNGCGLCVLDCAEGAIAIVDGKAKIVSDSFCDGLGACIGSCPQDALHIIEREAVPFDEEAAMEHVRSQGGTPEANHGHGHGAGTPHRHGQSAEHGGHGRIPGHGGCPGAAMRRFDSAESPAFAVAEGTVKGPGHWPLKIRLVPPTAPFLKGADVLVAADCAAAASPIFHSHFAAGKVVLIGCPKFDDTEAYAERLADILRVSGIASLTVLRMEVPCCRGLSAAAEKARVLSGTSLVLKEVIMTCAGGPAAPAPLSSLLEHHHHHH	not failed
MKTRDKIIQASLELFNEHGERTITTNHIAAHLDISPGNLYYHFRNKEDIIRCIFDQYEQHLLLGFKPYADQKVDLELLMSYFDAMFYTMWQFRFMYANLADILARDDTLKARYLKVQQAVLEQSIAVLNQLKKDGILQIEDERIADLADTIKMIIGFWISYKLTQSSIATISKASLYEGLLRVLMIFKAYSTPDSLANFDRLEQHFRSQSN	not failed
MKTRINYAKASPEAFKAVMALENYVQSSGLEHRFIHLIKLRASIINGCAFCVDMHVKESRHDGLSEQWINLMSVWRESPVYTEQERALLGWVDAVTKIAETGAPDDAFETLRAHFSDEEIVKITVAIGAINTWNRIAVGFRSQHPVEAAAKAA	not failed
MKTSFSIRIAFFFILSFLAVSCHRDTDALNMTFSKVEKCMDLCPDSALNLLKGIHDPEKLWGESQATYALLMTQAMDKNYMKFSSDSLIALALNYYTITQTSPIMYAKALFYHGRVMLELDKEEEALKSFLAAKDVYERTKDHKMLALIAEEVGMINRKQDLYDDALTNFREALTTYKQLKDSLSVISASLNIARVYLFKSEWDSCSLYYNNALEIAVQKNYLSEITILHELGILYRSMQNLSEAERYFLAAYEKETDEEKKYMECLSLGYLYMQMGQTENARKYLIMSANSSKAYTQISAYDCLYFLEKDIDNFEEAIVYHELADSITNAMEELNSRELIASLQKKYENEKLRNDNLQMKVRYTNFILWGTIAFLFVVACMCYYYYKNRNNKKKIAEIELQIQENEEEIERYQQEIEDIQISKDQVLKENLMLEENRTKVGELNGKIVLLTMQNKTLSEHLKELGGELNVGISSGSFIHAFRLLLAIKEGTLRGKLSNEERQKLFSLFDLIYWNYVSRLLERAPTLTKHDLEICCFLKFGLSHEELSCIFHTTSDSVTRAKGRLKGRLGISPQDDLDLFLKEF	failed
MKTSLRLEDGTKNSLQIPIDLIIEIFLRLSVNSIARCRCVSKQWASTLSRPYFTELFLTRSLARPKLLFAYRKGSDYLFLSSPQLQNPDDDHKKSSPVVVNYHMHHILTLGSGNMSWRTIQCCIPHRSFDGGICIDGLIYYYAGVNNNDIVIVCFDVRSEEFRFIIGALHHGSLINYNGKLSLYLPSTVYSRFNGVIRSIKLWVLEDAKRQEWSEHTYILPAMHDIMKTTDLRCVGMTQTKEFVFWSIKGMRFYVFYYNIERNTIKKVEMQGMEAFKESNVYTFLDHVEDVKLMQFF	failed
MKTSVIISTYTKERYKDVLRCIESVRHQSLKPYEILLILDPVKSLVEYYKNIVPKDVRVVVSDGFGLSKARNKGVFEAKGDIIAFIDDDAWADDLWLEKIVENYSDEGVYGVGGKIIPVFENGRPKWLPEELDWIVGCTYKGMPEQRTNIRNPIGANMSFRREAFEIAGPFRSEIGRYGKKLLSGEEAEFAMRLRKIKPDAKIIYEPSAVVYHKVPKSRVRISYAVKRAFYEGYSKAILAKEFPLEMESKYLNFILRSILRKLLSKGQQIEALVMSVIVMTVGIGNLYGTCRILLRK	failed
MKTVLAFGDSLTWGADPATGLRHPVEHRWPDVLEAELAGKAKVHPEGLGGRTTCYDDHAGPACRNGARALEVALSCHMPLDLVIIMLGTNDIKPVHGGRAEAAVSGMRRLAQIVETFIYKPREAVPKLLIVAPPPCVAGPGGEPAGGRDIEQS	not failed
MKTVRCSILGFGAIGQGVAEVLLMKKEYLESIGLEIIVVAVVDSRGATINPEGVDLADCLARKRTTGTVAIEKITGVEVIKSIDHDLVIETTPTNIVTGGAGLQNMFAAFEIGKDVITSNKGPLTLKYRELMEAAKVAGSSFRFEATVGGSMPIINLANEVLAGNRLKSIKGILNGTCNYILTRMLEERASYKDILAESMELGIAETDPTYDVDGIDTACKLVILANAIFGLNATYKDVEVTGITKITPEALEMAYERGHVIKLIGEVSRERIHVAPRLVPINHPLDVRGTLNVASIDTELAGEITVTGKGAGPVETASAILSDLIAIYGNQLEHHHHHH	not failed
